# Source: article PMC3430601, “Characterization of β-N-acetylhexosaminidase (LeHex20A), a member of glycoside hydrolase family 20, from Lentinula edodes (shiitake mushroom)” (AMB Express, 2012)
# Key:
# purified protein [1] = substrate: CC(=O)N[C@H]1[C@H](Oc2ccc([N+](=O)[O-])cc2)O[C@H](CO)[C@H](O)[C@@H]1O; assay: purified protein; type: biochemical, Lentinula edodes; conditions: 20 mM sodium acetate pH 4.2, 37 °C, 15 min
# purified protein [2] = substrate: CC(=O)N[C@H]1[C@H](Oc2ccc([N+](=O)[O-])cc2)O[C@H](CO)[C@@H](O)[C@@H]1O; assay: purified protein; type: biochemical, Lentinula edodes; conditions: 20 mM sodium acetate pH 4.2, 37 °C, 15 min
protein,measurement,setting,value
"LeHex20A (Lentinula edodes) (protein, native, purified from fruiting bodies; secreted mature form, 17-residue signal peptide predicted (ORF 553 aa, mature 536 aa); N-terminus LWPLPTDFSTGTAAL; 79 kDa on SDS-PAGE (58 kDa calculated, glycosylated); GH20) LWPLPTDFSTGTAALTLASDFDIDISAIPNPPQDLLDAISRTKGYLQTDQLEALVVDRGASYNQSLQNASSLVSLVLSYDSGVAGEPTSISEEAIDDIDSRVEGYTLTVPEDGSAATIKANSTLGLFRGLTTFGQLWYDLNNTTYTIEAPIAITDSPVFPYRGFMLDTARNYFPVSDILRTLDAMSWVKMTTFHWHMVDSQSFPLEVPEFPELSLNGAYGPSLVYSTNDVQTIVSYANARGIDVLPEIDTPGHTAIIAQAYPEHVACPGATPWATYANEPPAGQLRFANANTTNFTASLISSVSARFPGKYFSTGGDELNTECYAIDESTQADLNTTGKTLEQALDTFTQTVQSVLEDSGKTPVVWEEMVLDFNLTLSNNTIVMVWISSADAAAVADKGFRLVQAPSDYFYLDCGAGGWVGANPSGNSWCDPFKTWQYAYSFDPVANLTDAQAKLVIGGEHLLWTEQSHASNLDSIVWPRAAASAELFWSGPGGNISEALPRLHDVAFRMTQRGVGAIALQPLWCALRPGVCDLTA",Km,purified protein [1],430 ± 30 µM
same,kcat,purified protein [1],177 ± 8 s⁻¹
same,kcat/Km,purified protein [1],411000 M⁻¹ s⁻¹
same,Km,purified protein [2],340 ± 10 µM
same,kcat,purified protein [2],335 ± 10 s⁻¹
same,kcat/Km,purified protein [2],983000 M⁻¹ s⁻¹
